These results are taken from patent US20230192839A1 (published 2023).

Test [1] concerns the target T1, human CD33 antigen (human, UniProt P20138 18-259, limits assumed).
T1 construct: whole entry named; also called Siglec-3
Put plainly: SPR (Biacore T200), 37 C, scFv-Fc, 0 uM MTX. How it is done: (§1) All binding kinetics analysis was performed on label-free Biacore surface plasmon biosensors (Biacore T200™ from GE Life Sciences) at 37° C. in 10 mM Hepes pH 7.4, 150 mM NaCl, 0.05% Tween-20 (HBST+), with or without 10 µM MTX. The Biacore data were processed in Biacore T200 Evaluation Software, and the data were double-referenced (Myszka, 1999, J Mol Recognit 12(5):279-284) and fit globally to a simple Langmuir with mass transport model to determine the equilibrium dissociation constant, KD, from the ratio of the kinetic rate constants (KD = koff/kₒₙ). In some cases the binding of antigen was very low (or not detectable) in the presence of 10 µM MTX and as a result kinetic rate constants could not be accurately determined. In these cases, a KD (or KD limit) was estimated based on the binding response at the highest analyte concentration tested or based on the typical limit of detection for a Biacore T200.

For test [2], the target named is T1, human CD33 antigen. Kind of test: SPR (Biacore T200), 37 C; KD at 10 uM MTX / KD at 0 uM MTX. How it is done:
as §1
In general terms: Surface plasmon resonance follows binding to a sensor surface in real time, without labels.

Test [3] has as its target T1, human CD33 antigen. Put plainly: SPR (Biacore T200), 37 C, scFv-Fc, 10 uM MTX; KD estimated, rate constants not determined. As to the method: as §1
“*”: For interactions where kₒₙ and koff are reported, the KD was calculated using koff/kₒₙ.

T1 sequence (P20138 18-259 limits assumed): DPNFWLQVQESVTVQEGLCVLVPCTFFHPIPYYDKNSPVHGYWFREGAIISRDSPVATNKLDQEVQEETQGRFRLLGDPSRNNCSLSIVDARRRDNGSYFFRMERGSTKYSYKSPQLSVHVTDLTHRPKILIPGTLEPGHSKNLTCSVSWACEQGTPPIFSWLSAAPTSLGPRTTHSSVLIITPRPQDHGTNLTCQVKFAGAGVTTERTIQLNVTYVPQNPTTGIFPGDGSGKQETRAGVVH

B1: P03_A01 scFv-Fc fusion (scFv, V domains shown)
VH: QVQLVESGGGLVQAGGSLRLSCAASRRSSRSWAMHWVRQAPGKGLEWVAVISYDGRLKYYADSVKGRFTISRDNAEYLVYLQMNSLRAEDTAVYYCAAETGSVGLDYWGQGTLVTVSS
VL: DIQMTQSPSSLSASVGDRVTITCRASQGISTYLNWYQQKPGKAPKLLIYGATSLESGVPSRFSGSGSGTDFTLTISSLQPEDFATYYCQQGYSQGTFGQGTKVEIK
notes: Tested as scFv-Fc fusion
As to B1, in the test with human CD33 antigen [1], binding was put at a Kd of 0.115 µM; the koff (as a rule, the first-order rate constant of dissociation) was 0.0057 s⁻¹; the kon (as a rule, the rate constant with which the complex forms) was 50000 M⁻¹ s⁻¹. Moreover, in the test with human CD33 antigen [2], the “Ratio: KD with MTX / KD without MTX” value is 37. Also, in the test with human CD33 antigen [3], the Kd (in general, the concentration at which binding is half-saturated) was 4.27 µM.
